Tests used:
[1] = system: primary adult rat ventricular cardiomyocytes; assay: DNA synthesis (BrdU uptake, immunofluorescence) in primary adult rat ventricular cardiomyocytes; type: cell-based
Description: Primary neonatal rat ventricular cardiomyocytes were isolated using the Neomyts kit (Cellutron, Highland Park, N.J.), seeded at a density of 10^5 cells/cm^2 onto gelatin-coated cover slips, stimulated for 3 days, and labeled with BrdU for the terminal 2 days. Primary adult ventricular cardiomyocytes were isolated from male (300 gm) Wistar rats (Charles River Laboratories) and maintained as described (Engel, F. B. et al. p38 MAP kinase inhibition enables proliferation of adult mammalian cardiomyocytes. Genes Dev 19, 1175-87 (2005)). Adult cardiomyocytes were stimulated daily for 9 days and labeled with 30 μM BrdU for the terminal 3 days. Cardiomyocytes were stimulated with periostin (500 ng/mL) and FGF (100 ng/mL). […] The vehicle used to dissolve factors or chemicals was added to unstimulated samples, which were then processed together with the test samples. DNA-synthesis was analyzed by visualization of BrdU uptake and cytokinesis was determined by detection of the cleavage furrow and the midbody with an antibody against aurora B kinase as described (Engel, F. B. et al. p38 MAP kinase inhibition enables proliferation of adult mammalian cardiomyocytes. Genes Dev 19, 1175-87 (2005)). Signals were visualized with secondary antibodies conjugated to Alexa 488, Alexa 546, Alexa 594, and Alexa 647 (Invitrogen). […] For image acquisition, the value for γ was set at 1 and the lookup table settings were linear. Primary adult rat ventricular cardiomyocytes were grown on gridded cover slips (Electron Microscopy Services, Ft. Washington, Pa.) and imaged in phase contrast at 10× magnification. Cardiomyocytes were transduced with an adenovirus leading to nuclear expression of histone2B-GFP (Shi, Q. & King, R. W. Nature 437, 1038-42 (2005)) under control of the chicken troponin T promoter ([…]. Am J Physiol Cell Physiol 286, […]-64 (2004)). Nuclei were visualized at 10× magnification with a mercury-arc lamp dimmed to 1.5% with a neutral density filter. […] Images of BrdU-positive cardiomyocytes were matched with the corresponding images from before stimulation. For quantification, differentiated cardiomyocytes were defined as striated rod-shaped structures with length/width ratio>1.5.

[2] = system: primary neonatal rat ventricular cardiomyocytes; assay: Cardiomyocyte proliferation by cell count (hemocytometer); type: cell-based
Protocol: To determine cardiomyocyte proliferation, primary neonatal rat ventricular cardiomyocytes were quantified by counting with a hemocytometer after 3 days and 6 days of stimulation. To determine cardiomyocyte survival, primary neonatal rat ventricular cardiomyocytes were pre-treated with 500 ng/mL periostin or buffer for 30 min and then exposed to 0.5 μM doxycycline or 100 ng/mL TNFα for 24 hr and quantified by counting. Corresponding samples were stained with an antibody directed against tropomyosin as a cardiomyocyte marker to control for the percentage of differentiated cardiomyocytes. Apoptotic cardiomyocyte nuclei were determined after 24 hr with the In situ Cell Death Detection Kit (Roche, Indianapolis, Ind.) in combination with staining for troponin I.

[3] = system: adult ventricular cardiomyocytes; assay: Transcription of fetal gene program (RT-PCR) in adult ventricular cardiomyocytes; type: cell-based, rat
[4] = system: Adult male Sprague-Dawley rats; assay: Rat model of myocardial infarction: echocardiography and catheterization; type: in vivo; conditions: for Maximum left ventricular elastance / Maximum rate of left ventricular pressure rise / Preload-recruitable stroke work / Slope of end-systolic pressure-volume relationship: catheterization, 12 weeks
Protocol: Adult male Sprague-Dawley rats (300 gm, Charles River Laboratories) underwent experimental myocardial infarction as described (del Monte, F. et al. Abrogation of ventricular arrhythmias in a model of ischemia and reperfusion by targeting myocardial calcium cycling. Proc Natl Acad Sci USA 101, 5622-7 (2004)). The survival rate was 67%. Gelfoam loaded with 100 μg of recombinant periostin or with buffer were applied over the myocardial infarction at the time of surgery. Rats received 3 intraperitoneal BrdU injections (70 μmol/kg body weight) with a half-life of 2 hr every 48 hr over a period of 7 days. Echocardiography and hemodynamic catheterization were performed as described (Prunier, F. et al. Am J Physiol Heart Circ Physiol (2006)).

[5] = H2B-GFP, after 6 days, 3 days BrdU labeling, stimulus not named in block (periostin section)
[6] = 12 weeks after MI, listed as Periostin

B1: periostin: Recombinant periostin, purified from HEK293 cells expressing the full-length human cDNA; secreted protein of 834 amino acids (Seq ID. No. 1) (protein, listed as Homo sapiens)
chain: MIPFLPMFSLLLLLIVNPINANNHYDKILAHSRIRGRDQGPNVCALQQILGTKKKYFSTCKNWYKKSICGQKTTVLYECCPGYMRMEGMKGCPAVLPIDHVYGTLGIVGATTTQRYSDASKLREEIEGKGSFTYFAPSNEAWDNLDSDIRRGLESNVNVELLNALHSHMINKRMLTKDLKNGMIIPSMYNNLGLFINHYPNGVVTVNCARIIHGNQIATNGVVHVIDRVLTQIGTSIQDFIEAEDDLSSFRAAAITSDILEALGRDGHFTLFAPTNEAFEKLPRGVLERFMGDKVASEALMKYHILNTLQCSESIMGGAVFETLEGNTIEIGCDGDSITVNGIKMVNKKDIVTNNGVIHLIDQVLIPDSAKQVIELAGKQQTTFTDLVAQLGLASALRPDGEYTLLAPVNNAFSDDTLSMVQRLLKLILQNHILKVKVGLNELYNGQILETIGGKQLRVFVYRTAVCIENSCMEKGSKQGRNGAIHIFREIIKPAEKSLHEKLKQDKRFSTFLSLLEAADLKELLTQPGDWTLFVPTNDAFKGMTSEEKEILIRDKNALQNIILYHLTPGVFIGKGFEPGVTNILKTTQGSKIFLKEVNDTLLVNELKSKESDIMTTNGVIHVVDKLLYPADTPVGNDQLLEILNKLIKYIQIKFVRGSTFKEIPVTVYTTKIITKVVEPKIKVIEGSLQPIIKTEGPTLTKVKIEGEPEFRLIKEGETITEVIHGEPIIKKYTKIIDGVPVEITEKETREERIITGPEIKYTRISTGGGETEETLKKLLQEEVTKVTKFIEGGDGHLFEDEEIKRLLQGDTPVRKLQANKKVQGSRRRLREGRSQ
B1 was tested, and the “increase of cardiomyocyte DNA synthesis” value ([1]; 9 days periostin 500 ng/mL, vs non-stimulated) was 14 fold, the “cardiomyocyte DNA synthesis” value ([1]; 9 days stimulation (periostin 500 ng/mL, FGF 100 ng/mL), BrdU terminal 3 days) was 1.1±0.2% and the BrdU-positive binucleated cardiomyocytes [1, 5] was 0.2±0.03%. For the same molecule, the BrdU-positive mononucleated cardiomyocytes [1, 5] was 1.7±0.3%, the “start of periostin-induced cardiomyocyte DNA synthesis” value ([1]; time-course of stimulation) was 3 days and the “increase of cardiomyocyte proliferation” value ([2]; after 3 days) was 3.6 fold. For the same molecule, the “increase of cardiomyocyte proliferation” value ([2]; after 6 days) was 4.2 fold, the “transcription of SERCA2” value [3] was “slightly increased” and the “transcription of β-MHC, SMA and ANF” value [3] was “not increased”. It also gave an Ejection fraction ([4]; 1 week after MI) of 53%, an End-diastolic dimension ([4]; 1 week after MI) of 8.1 ± 0.4 mm and an End-systolic dimension ([4]; 1 week after MI) of 6.1 ± 0.4 mm. It also gave a Shortening fraction ([4]; 1 week after MI, periostin Gelfoam 100 μg) of 25%, a Shortening fraction ([4]; 1 week after MI, periostin Gelfoam 100 μg, listed as Periostin) of 25.2 ± 2.1% and an Ejection fraction ([4]; 1 week after MI, listed as Periostin) of 52.6 ± 2.9%. For the same molecule, the Ejection fraction ([4]; 12 weeks after MI) was 66%, the End-diastolic dimension ([4]; 12 weeks after MI) was “significantly smaller” and the End-systolic dimension ([4]; 12 weeks after MI) was 6 ± 0.5 mm. For the same molecule, the Shortening fraction ([4]; 12 weeks after MI) was 33%, the Ejection fraction [4, 6] was 65.9 ± 3.8% and the End-diastolic dimension [4, 6] was 8.4 ± 0.2 mm. For the same molecule, the Shortening fraction [4, 6] was 33.0 ± 2.6%, the “Maximum left ventricular elastance” value [4] was “higher” and the “Maximum rate of left ventricular pressure rise” value [4] was “higher”. The Preload-recruitable stroke work [4] was “higher”, the “Slope of end-systolic pressure-volume relationship” value [4] was “steeper slope” and the “Maximum left ventricular elastance” value ([4]; listed as Periostin) was 2.5 ± 1. For the same molecule, the “Maximum rate of left ventricular pressure rise” value ([4]; listed as Periostin) was 4821 ± 513 mm Hg/s, the Preload-recruitable stroke work ([4]; listed as Periostin) was 68.6 ± 13.9 mm Hg and the “Slope of end-systolic pressure-volume relationship” value ([4]; listed as Periostin) was 1.4 ± 0.2 mm Hg/μL.

Reference: US8936806B2, “Periostin induces proliferation of cardiomyocytes and promotes cardiac regeneration” (Children's Medical Center Corporation, priority 2007, dated 2015)
